Legend:
[1] = molecular target: wild-type human glucagon-like peptide-1 receptor (double c-Myc, V5) (human) (UniProt P43220)
[2] = molecular target: wild-type human glucagon-like peptide-1 receptor (double c-Myc, V5) (human) (UniProt P43220); remark: listed apart in the source
[3] = molecular target: human GLP-1R L89azF (human) (UniProt P43220)
[4] = molecular target: human GLP-1R R134azF (human) (UniProt P43220)
[5] = molecular target: human GLP-1R S116azF (human) (UniProt P43220)
[6] = molecular target: human GLP-1R V36azF (human) (UniProt P43220)
[7] = molecular target: human GLP-1R T35azF (human) (UniProt P43220)
[8] = molecular target: human GLP-1R L118azF (human) (UniProt P43220)
[9] = molecular target: human GLP-1R E127azF (human) (UniProt P43220)
[10] = molecular target: human GLP-1R Y101azF (human) (UniProt P43220)
[11] = molecular target: human GLP-1R S31azF (human) (UniProt P43220)
[12] = molecular target: human GLP-1R F80azF (human) (UniProt P43220)
[13] = molecular target: human GLP-1R Y88azF (human) (UniProt P43220)
[14] = molecular target: human GLP-1R S117azF (human) (UniProt P43220)
[15] = molecular target: human GLP-1R W91azF (human) (UniProt P43220)
[16] = molecular target: human GLP-1R Y69azF (human) (UniProt P43220)
[17] = molecular target: human GLP-1R P119azF (human) (UniProt P43220)
[18] = molecular target: human GLP-1R S124azF (human) (UniProt P43220)
[19] = molecular target: human GLP-1R S135azF (human) (UniProt P43220)
[20] = molecular target: human GLP-1R W33azF (human) (UniProt P43220)
[21] = molecular target: human GLP-1R R121azF (human) (UniProt P43220)
[22] = molecular target: human GLP-1R E68azF (human) (UniProt P43220)
[23] = molecular target: human GLP-1R Y42azF (human) (UniProt P43220)
[24] = molecular target: human GLP-1R L123azF (human) (UniProt P43220)
[25] = molecular target: human GLP-1R F103azF (human) (UniProt P43220)
[26] = molecular target: human GLP-1R R40azF (human) (UniProt P43220)
[27] = molecular target: human GLP-1R E125azF (human) (UniProt P43220)
[28] = molecular target: human GLP-1R E138azF (human) (UniProt P43220)
[29] = molecular target: human GLP-1R V30azF (human) (UniProt P43220)
[30] = molecular target: human GLP-1R F61azF (human) (UniProt P43220)
[31] = molecular target: human GLP-1R W39azF (human) (UniProt P43220)
[32] = molecular target: human GLP-1R P90azF (human) (UniProt P43220)
[33] = molecular target: human GLP-1R L32azF (human) (UniProt P43220)
[34] = molecular target: human GLP-1R A70azF (human) (UniProt P43220)
Sequence of human GLP-1R A70azF (human) (P43220 24-463 A70F): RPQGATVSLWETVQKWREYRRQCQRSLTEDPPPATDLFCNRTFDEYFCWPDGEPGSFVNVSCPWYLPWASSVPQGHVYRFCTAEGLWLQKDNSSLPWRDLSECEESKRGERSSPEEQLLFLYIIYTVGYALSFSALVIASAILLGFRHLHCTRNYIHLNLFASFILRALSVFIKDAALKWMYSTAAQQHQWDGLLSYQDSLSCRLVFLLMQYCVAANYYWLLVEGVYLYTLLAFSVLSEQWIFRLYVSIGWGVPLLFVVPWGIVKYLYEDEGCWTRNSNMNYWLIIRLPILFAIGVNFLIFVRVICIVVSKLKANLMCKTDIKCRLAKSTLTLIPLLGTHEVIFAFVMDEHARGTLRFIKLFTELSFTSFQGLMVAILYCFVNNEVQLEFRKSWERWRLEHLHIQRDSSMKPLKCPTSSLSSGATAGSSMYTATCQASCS

Sequence of wild-type human glucagon-like peptide-1 receptor (double c-Myc, V5) (human) (P43220 24-463): as the sequence (P43220 24-463 A70F) above, with F47A counted along it
Sequence of human GLP-1R R121azF (human) (P43220 24-463 R121F): as the sequence (P43220 24-463 A70F) above, with F47A, R98F counted along it
Sequence of human GLP-1R S135azF (human) (P43220 24-463 S135F): as the sequence (P43220 24-463 A70F) above, with F47A, S112F counted along it
Sequence of human GLP-1R Y69azF (human) (P43220 24-463 Y69F): as the sequence (P43220 24-463 A70F) above, with Y46F, F47A counted along it
Sequence of human GLP-1R L32azF (human) (P43220 other isoform, or with tags, fused parts or gaps): as the sequence (P43220 24-463 A70F) above, with L9F, F47A counted along it
Sequence of human GLP-1R E125azF (human) (P43220 24-463 E125F): as the sequence (P43220 24-463 A70F) above, with F47A, E102F counted along it
Sequence of human GLP-1R E68azF (human) (P43220 24-463 E68F): as the sequence (P43220 24-463 A70F) above, with E45F, F47A counted along it
Sequence of human GLP-1R Y42azF (human) (P43220 other isoform, or with tags, fused parts or gaps): as the sequence (P43220 24-463 A70F) above, with Y19F, F47A counted along it
Sequence of human GLP-1R E127azF (human) (P43220 24-463 E127F): as the sequence (P43220 24-463 A70F) above, with F47A, E104F counted along it
Sequence of human GLP-1R Y101azF (human) (P43220 24-463 Y101F): as the sequence (P43220 24-463 A70F) above, with F47A, Y78F counted along it
Sequence of human GLP-1R P119azF (human) (P43220 24-463 P119F): as the sequence (P43220 24-463 A70F) above, with F47A, P96F counted along it
Sequence of human GLP-1R L118azF (human) (P43220 24-463 L118F): as the sequence (P43220 24-463 A70F) above, with F47A, L95F counted along it
Sequence of human GLP-1R W91azF (human) (P43220 24-463 W91F): as the sequence (P43220 24-463 A70F) above, with F47A, W68F counted along it
Sequence of human GLP-1R R40azF (human) (P43220 other isoform, or with tags, fused parts or gaps): as the sequence (P43220 24-463 A70F) above, with R17F, F47A counted along it
Sequence of human GLP-1R P90azF (human) (P43220 24-463 P90F): as the sequence (P43220 24-463 A70F) above, with F47A, P67F counted along it
Sequence of human GLP-1R E138azF (human) (P43220 24-463 E138F): as the sequence (P43220 24-463 A70F) above, with F47A, E115F counted along it
Sequence of human GLP-1R Y88azF (human) (P43220 24-463 Y88F): as the sequence (P43220 24-463 A70F) above, with F47A, Y65F counted along it
Sequence of human GLP-1R V36azF (human) (P43220 other isoform, or with tags, fused parts or gaps): as the sequence (P43220 24-463 A70F) above, with V13F, F47A counted along it
Sequence of human GLP-1R W33azF (human) (P43220 other isoform, or with tags, fused parts or gaps): as the sequence (P43220 24-463 A70F) above, with W10F, F47A counted along it
Sequence of human GLP-1R S31azF (human) (P43220 other isoform, or with tags, fused parts or gaps): as the sequence (P43220 24-463 A70F) above, with S8F, F47A counted along it
Sequence of human GLP-1R R134azF (human) (P43220 24-463 R134F): as the sequence (P43220 24-463 A70F) above, with F47A, R111F counted along it
Sequence of human GLP-1R S117azF (human) (P43220 24-463 S117F): as the sequence (P43220 24-463 A70F) above, with F47A, S94F counted along it
Sequence of human GLP-1R F80azF (human) (P43220 24-463): as the sequence (P43220 24-463 A70F) above, with F47A counted along it
Sequence of human GLP-1R F61azF (human) (P43220 24-463): as the sequence (P43220 24-463 A70F) above, with F47A counted along it
Sequence of human GLP-1R F103azF (human) (P43220 24-463): as the sequence (P43220 24-463 A70F) above, with F47A counted along it
Sequence of human GLP-1R W39azF (human) (P43220 other isoform, or with tags, fused parts or gaps): as the sequence (P43220 24-463 A70F) above, with W16F, F47A counted along it
Sequence of human GLP-1R L123azF (human) (P43220 24-463 L123F): as the sequence (P43220 24-463 A70F) above, with F47A, L100F counted along it
Sequence of human GLP-1R S116azF (human) (P43220 24-463 S116F): as the sequence (P43220 24-463 A70F) above, with F47A, S93F counted along it
Sequence of human GLP-1R V30azF (human) (P43220 other isoform, or with tags, fused parts or gaps): as the sequence (P43220 24-463 A70F) above, with V7F, F47A counted along it
Sequence of human GLP-1R L89azF (human) (P43220 24-463 L89F): as the sequence (P43220 24-463 A70F) above, with F47A, L66F counted along it
Sequence of human GLP-1R T35azF (human) (P43220 other isoform, or with tags, fused parts or gaps): as the sequence (P43220 24-463 A70F) above, with T12F, F47A counted along it
Sequence of human GLP-1R S124azF (human) (P43220 24-463 S124F): as the sequence (P43220 24-463 A70F) above, with F47A, S101F counted along it

**Q.** Which cAMP accumulation in HEK293T cells transiently expressing the human GLP-1R, pEC50 [1] does the source give for fluorescein(Lys-20)-exendin-4 (peptide) here?
**A.** 9.3 -log10 M

**Q.** For “exendin-4 (from UniProt P26349 48-87) (peptide)”, which exendin-4-mediated cAMP accumulation in HEK293T cells, pEC50 [2] is on record?
**A.** 10.8 -log10 M

**Q.** And the exendin-4-mediated cAMP accumulation in HEK293T cells (+azF), pEC50 [3]?
**A.** 9.6 -log10 M

**Q.** And the exendin-4-mediated cAMP accumulation in HEK293T cells (+azF), pEC50 [4]?
**A.** 11.1 -log10 M

**Q.** What about the exendin-4-mediated cAMP accumulation in HEK293T cells (+azF), pEC50 [5] of the same substance?
**A.** 11.4 -log10 M

**Q.** And the exendin-4-mediated cAMP accumulation in HEK293T cells (+azF), pEC50 [6]?
**A.** 11.4 -log10 M

**Q.** And the exendin-4-mediated cAMP accumulation in HEK293T cells (+azF), pEC50 [7]?
**A.** 9.5 -log10 M

**Q.** And the exendin-4-mediated cAMP accumulation in HEK293T cells (+azF), pEC50 [8]?
**A.** 11.5 -log10 M

**Q.** And the exendin-4-mediated cAMP accumulation in HEK293T cells (+azF), pEC50 [9]?
**A.** 10.8 -log10 M

**Q.** And the exendin-4-mediated cAMP accumulation in HEK293T cells (+azF), pEC50 [10]?
**A.** 11.5 -log10 M

**Q.** And the exendin-4-mediated cAMP accumulation in HEK293T cells (+azF), pEC50 [11]?
**A.** 11.1 -log10 M

**Q.** What about the exendin-4-mediated cAMP accumulation in HEK293T cells (+azF), pEC50 [12] of the same substance?
**A.** 11.3 -log10 M

**Q.** What about the exendin-4-mediated cAMP accumulation in HEK293T cells (+azF), pEC50 [13] of the same substance?
**A.** 10.6 -log10 M

**Q.** What about the exendin-4-mediated cAMP accumulation in HEK293T cells (+azF), pEC50 [14] of the same substance?
**A.** 11.1 -log10 M

**Q.** What about the exendin-4-mediated cAMP accumulation in HEK293T cells (+azF), pEC50 [15] of the same substance?
**A.** 11.5 -log10 M

**Q.** What about the exendin-4-mediated cAMP accumulation in HEK293T cells (+azF), pEC50 [16] of the same substance?
**A.** 10.8 -log10 M

**Q.** And the exendin-4-mediated cAMP accumulation in HEK293T cells (+azF), pEC50 [17]?
**A.** 11.4 -log10 M

**Q.** What about the exendin-4-mediated cAMP accumulation in HEK293T cells (+azF), pEC50 [18] of the same substance?
**A.** 11.4 -log10 M

**Q.** And the exendin-4-mediated cAMP accumulation in HEK293T cells (+azF), pEC50 [19]?
**A.** 11.5 -log10 M

**Q.** And the exendin-4-mediated cAMP accumulation in HEK293T cells (+azF), pEC50 [20]?
**A.** 11.4 -log10 M

**Q.** And the exendin-4-mediated cAMP accumulation in HEK293T cells (+azF), pEC50 [21]?
**A.** 10 -log10 M

**Q.** What about the exendin-4-mediated cAMP accumulation in HEK293T cells (+azF), pEC50 [22] of the same substance?
**A.** 11.4 -log10 M

**Q.** What about the exendin-4-mediated cAMP accumulation in HEK293T cells (+azF), pEC50 [23] of the same substance?
**A.** 10.6 -log10 M

**Q.** And the exendin-4-mediated cAMP accumulation in HEK293T cells (+azF), pEC50 [24]?
**A.** 11.2 -log10 M

**Q.** And the exendin-4-mediated cAMP accumulation in HEK293T cells (+azF), pEC50 [25]?
**A.** 11.4 -log10 M

**Q.** What about the exendin-4-mediated cAMP accumulation in HEK293T cells (+azF), pEC50 [26] of the same substance?
**A.** 11.5 -log10 M

**Q.** And the exendin-4-mediated cAMP accumulation in HEK293T cells (+azF), pEC50 [27]?
**A.** 10.3 -log10 M

**Q.** What about the exendin-4-mediated cAMP accumulation in HEK293T cells (+azF), pEC50 [28] of the same substance?
**A.** 11 -log10 M

**Q.** And the exendin-4-mediated cAMP accumulation in HEK293T cells (+azF), pEC50 [29]?
**A.** 11.2 -log10 M

**Q.** What about the exendin-4-mediated cAMP accumulation in HEK293T cells (+azF), pEC50 [30] of the same substance?
**A.** 11.3 -log10 M

**Q.** And the exendin-4-mediated cAMP accumulation in HEK293T cells (+azF), pEC50 [31]?
**A.** 10.6 -log10 M

**Q.** What about the exendin-4-mediated cAMP accumulation in HEK293T cells (+azF), pEC50 [32] of the same substance?
**A.** 9.9 -log10 M

**Q.** And the exendin-4-mediated cAMP accumulation in HEK293T cells (+azF), pEC50 [33]?
**A.** 11.1 -log10 M

**Q.** And the exendin-4-mediated cAMP accumulation in HEK293T cells (+azF), pEC50 [34]?
**A.** 9.1 -log10 M

From article PMC5409479
